Test: UGT enzyme reaction with quercetin (recombinant UGTs, HPLC)
Assay type: biochemical, Arabidopsis
Conditions: 0.5 mM quercetin, 5 mM UDP-glucose, 30° C.; for Specific activity (nkat/mg protein) 3-O-glc: quercetin glucosylated at 3-OH; for Specific activity (nkat/mg protein) 3′-O-glc: quercetin glucosylated at 3′-OH; for Specific activity (nkat/mg protein) 4′-O-glc: quercetin glucosylated at 4′-OH; for Specific activity (nkat/mg protein) 7-O-glc: quercetin glucosylated at 7-OH
Description: The assay mix (200 μl) contained 2 μg of recombinant protein, 100 mM Tris-HCl, pH 7.0, 5 mM UDP-glucose 1.4 mM 2-mercaptoethanol, and 0.5 mM of quercetin. The reaction was carried out at 30° C. for 1 h, and was quick-frozen and stored at −20° C. prior to the reverse-phase HPLC analysis
Reverse-phase HPLC (SpectraSYSTEM HPLC systems and UV6000LP Photodiode Array Detector, ThermoQuest) analysis was carried using a Columbus 5μ C18 column (250×4.60 mm, PHENOMENEX). Quercetin glucosides were separated from the aglycone by a linear gradient of 10-75% acetonitrile in H2O (all solution contained 0.1% trifluoroacetic acid) at 1 ml/mm over 20 mm and monitored at 370 nm. Cytokinin glucosides were separated from their aglycone by a liner gradient of 10-100% methanol in H2O (for N6-isopentenyladenine (iP), N6-benzyladenine and kinetin) or 10-60% methanol in H2O (for trans-zeatin and dihydrozeatin) at 1 ml/min over 20 mm. All solution contained 0.25% acetic acid and 0.04% triethylamine, trifluoroacetic acid. The separation was monitored at 206 nm and 252 nm. The identity of the products was confirmed by comparison with authentic gluco sides.
The activity of Arabidopsis recombinant UGTs towards quercetin was determined using the platform developed previously^15.

B1: UGT73C6: Arabidopsis recombinant glycosyltransferase (protein, UniProt Q9ZQ95 1-495, looked up)
UDP-glycosyltransferase 73C6: MAFEKNNEPFPLHFVLFPFMAQGHMIPMVDIARLLAQRGVLITIVTTPHNAARFKNVLNRAIESGLPINLVQVKFPYQEAGLQEGQENMDLLTTMEQITSFFKAVNLLKEPVQNLIEEMSPRPSCLISDMCLSYTSEIAKKFKIPKILFHGMGCFCLLCVNVLRKNREILDNLKSDKEYFIVPYFPDRVEFTRPQVPVETYVPAGWKEILEDMVEADKTSYGVIVNSFQELEPAYAKDFKEARSGKAWTIGPVSLCNKVGVDKAERGNKSDIDQDECLEWLDSKEPGSVLYVCLGSICNLPLSQLLELGLGLEESQRPFIWVIRGWEKYKELVEWFSESGFEDRIQDRGLLIKGWSPQMLILSHPSVGGFLTHCGWNSTLEGITAGLPMLTWPLFADQFCNEKLVVQILKVGVSAEVKEVMKWGEEEKIGVLVDKEGVKKAVEELMGESDDAKERRRRAKELGESAHKAVEEGGSSHSNITFLLQDIMQLAQSNN
Specific activity (nkat/mg protein) 3-O-glc: 0.11 nkat/mg protein
Specific activity (nkat/mg protein) 3′-O-glc: — (Activity lower than 0.02 nkat/mg protein has been considered as trace activity and is not shown in the Table.)
Specific activity (nkat/mg protein) 4′-O-glc: 0.16 nkat/mg protein
Specific activity (nkat/mg protein) 7-O-glc: 0.14 nkat/mg protein

B2: UGT76E1: Arabidopsis recombinant glycosyltransferase (protein, UniProt Q9LTH3 1-453, looked up)
UDP-glycosyltransferase 76E1: MEELGVKRRIVLVPVPAQGHVTPIMQLGKALYSKGFSITVVLTQYNRVSSSKDFSDFHFLTIPGSLTESDLKNLGPFKFLFKLNQICEASFKQCIGQLLQEQGNDIACVVYDEYMYFSQAAVKEFQLPSVLFSTTSATAFVCRSVLSRVNAESFLLDMKDPKVSDKEFPGLHPLRYKDLPTSAFGPLESILKVYSETVNIRTASAVIINSTSCLESSSLAWLQKQLQVPVYPIGPLHIAASAPSSLLEEDRSCLEWLNKQKIGSVIYISLGSLALMETKDMLEMAWGLRNSNQPFLWVIRPGSIPGSEWTESLPEEFSRLVSERGYIVKWAPQIEVLRHPAVGGFWSHCGWNSTLESIGEGVPMICRPFTGDQKVNARYLERVWRIGVQLEGELDKGTVERAVERLIMDEEGAEMRKRVINLKEKLQASVKSRGSSFSSLDNFVNSLKMMNFM
Specific activity (nkat/mg protein) 3-O-glc: 0.02 nkat/mg protein
Specific activity (nkat/mg protein) 3′-O-glc: — (Activity lower than 0.02 nkat/mg protein has been considered as trace activity and is not shown in the Table.)
Specific activity (nkat/mg protein) 4′-O-glc: — (Activity lower than 0.02 nkat/mg protein has been considered as trace activity and is not shown in the Table.)
Specific activity (nkat/mg protein) 7-O-glc: 0.08 nkat/mg protein

B3: UGT71E8: Arabidopsis recombinant glycosyltransferase as printed in Table 1A; probably UGT71B8 of FIG. 1 (protein, UniProt Q9LSY4 1-480, looked up)
UDP-glycosyltransferase 71B8: MNKFALVFVPFPILGHLKSTAEMAKLLVEQETRLSISIIILPLLSGDDVSASAYISALSAASNDRLHYEVISDGDQPTVGLHVDNHIPMVKRTVAKLVDDYSRRPDSPRLAGLVVDMFCISVIDVANEVSVPCYLFYTSNVGILALGLHIQMLFDKKEYSVSETDFEDSEVVLDVPSLTCPYPVKCLPYGLATKEWLPMYLNQGRRFREMKGILVNTFAELEPYALESLHSSGDTPRAYPVGPLLHLENHVDGSKDEKGSDILRWLDEQPPKSVVFLCFGSIGGFNEEQAREMAIALERSGHRFLWSLRRASRDIDKELPGEFKNLEEILPEGFFDRTKDKGKVIGWAPQVAVLAKPAIGGFVTHCGWNSILESLWFGVPIAPWPLYAEQKFNAFVMVEELGLAVKIRKYWRGDQLVGTATVIVTAEEIERGIRCLMEQDSDVRNRVKEMSKKCHMALKDGGSSQSALKLFIQDVTKYIA
Specific activity (nkat/mg protein) 3-O-glc: 0.31 nkat/mg protein
Specific activity (nkat/mg protein) 3′-O-glc: — (Activity lower than 0.02 nkat/mg protein has been considered as trace activity and is not shown in the Table.)
Specific activity (nkat/mg protein) 4′-O-glc: 0.25 nkat/mg protein
Specific activity (nkat/mg protein) 7-O-glc: — (Activity lower than 0.02 nkat/mg protein has been considered as trace activity and is not shown in the Table.)

B4: UGT71C2: Arabidopsis recombinant glycosyltransferase (protein, UniProt O82382 1-474, looked up)
UDP-glycosyltransferase 71C2: MAKQQEAELIFIPFPIPGHILATIELAKRLISHQPSRIHTITILHWSLPFLPQSDTIAFLKSLIETESRIRLITLPDVQNPPPMELFVKASESYILEYVKKMVPLVRNALSTLLSSRDESDSVHVAGLVLDFFCVPLIDVGNEFNLPSYIFLTCSASFLGMMKYLLERNRETKPELNRSSDEETISVPGFVNSVPVKVLPPGLFTTESYEAWVEMAERFPEAKGILVNSFESLERNAFDYFDRRPDNYPPVYPIGPILCSNDRPNLDLSERDRILKWLDDQPESSVVFLCFGSLKSLAASQIKEIAQALELVGIRFLWSIRTDPKEYASPNEILPDGFMNRVMGLGLVCGWAPQVEILAHKAIGGFVSHCGWNSILESLRFGVPIATWPMYAEQQLNAFTIVKELGLALEMRLDYVSEYGEIVKADEIAGAVRSLMDGEDVPRRKLKEIAEAGKEAVMDGGSSFVAVKRFIDGL
Specific activity (nkat/mg protein) 3-O-glc: 0.16 nkat/mg protein
Specific activity (nkat/mg protein) 3′-O-glc: 0.03 nkat/mg protein
Specific activity (nkat/mg protein) 4′-O-glc: — (Activity lower than 0.02 nkat/mg protein has been considered as trace activity and is not shown in the Table.)
Specific activity (nkat/mg protein) 7-O-glc: 0.24 nkat/mg protein

B5: UGT88A1: Arabidopsis recombinant glycosyltransferase, FIG. 4 (protein, listed as Arabidopsis thaliana)
chain: MGEEAIVLYPAPPIGHLVSMVELGKTILSKNPSLSIHIILVPPPYQPESTATYISSVSSSFPSITFHHLPAVTPYSSSSTSRHHHESLLLEILCFSNPSVHRTLFSLSRNFNVRAMIIDFFCTAVLDITADFTFPVYFFYTSGAACLAFSFYLPTIDETTPGKNLKDIPTVHIPGVPPMKGSDMPKAVLERDDEVYDVFIMFGKQLSKSSGIIINTFDALENRAIKAITEELCFRNIYPIGPLIVNGRIEDRNDNKAVSCLNWLDSQPEKSVVFLCFGSLGLFSKEQVIEIAVGLEKSGQRFLWVVRNPPELEKTELDLKSLLPEGFLSRTEDKGMVVKSWAPQVPVLNHKAVGGFVTHCGWNSILEAVCAGVPMVAWPLYAEQRFNRVMIVDEIKIAISMNESETGFVSSTEVEKRVQEIIGECPVRERTMAMKNAAELALTETGSSHTALTTLLQSWSPK
Specific activity (nkat/mg protein) 3-O-glc: 0.41 nkat/mg protein
Specific activity (nkat/mg protein) 3′-O-glc: 0.19 nkat/mg protein
Specific activity (nkat/mg protein) 4′-O-glc: 0.76 nkat/mg protein
Specific activity (nkat/mg protein) 7-O-glc: 0.19 nkat/mg protein
